Tests used:
[1] = target: muc-1 on muc-1 positive human cancer cells (DU145; T47D) (human) (UniProt P15941); test: flow cytometry, dye labelled IgG on muc-1 positive T47D (printed T74D) cells
[2] = target: muc-1 on muc-1 positive human cancer cells (DU145; T47D) (human) (UniProt P15941); test: flow cytometry, dye labelled IgG on DU145 cells, higher dose range
[3] = target: muc-1 on muc-1 positive human cancer cells (DU145; T47D) (human) (UniProt P15941); test: flow cytometry, dye labelled IgG 0.2 to 200 nM on DU145 cells

UniProt P15941, sequence (P15941 24-1255, stated change not applied): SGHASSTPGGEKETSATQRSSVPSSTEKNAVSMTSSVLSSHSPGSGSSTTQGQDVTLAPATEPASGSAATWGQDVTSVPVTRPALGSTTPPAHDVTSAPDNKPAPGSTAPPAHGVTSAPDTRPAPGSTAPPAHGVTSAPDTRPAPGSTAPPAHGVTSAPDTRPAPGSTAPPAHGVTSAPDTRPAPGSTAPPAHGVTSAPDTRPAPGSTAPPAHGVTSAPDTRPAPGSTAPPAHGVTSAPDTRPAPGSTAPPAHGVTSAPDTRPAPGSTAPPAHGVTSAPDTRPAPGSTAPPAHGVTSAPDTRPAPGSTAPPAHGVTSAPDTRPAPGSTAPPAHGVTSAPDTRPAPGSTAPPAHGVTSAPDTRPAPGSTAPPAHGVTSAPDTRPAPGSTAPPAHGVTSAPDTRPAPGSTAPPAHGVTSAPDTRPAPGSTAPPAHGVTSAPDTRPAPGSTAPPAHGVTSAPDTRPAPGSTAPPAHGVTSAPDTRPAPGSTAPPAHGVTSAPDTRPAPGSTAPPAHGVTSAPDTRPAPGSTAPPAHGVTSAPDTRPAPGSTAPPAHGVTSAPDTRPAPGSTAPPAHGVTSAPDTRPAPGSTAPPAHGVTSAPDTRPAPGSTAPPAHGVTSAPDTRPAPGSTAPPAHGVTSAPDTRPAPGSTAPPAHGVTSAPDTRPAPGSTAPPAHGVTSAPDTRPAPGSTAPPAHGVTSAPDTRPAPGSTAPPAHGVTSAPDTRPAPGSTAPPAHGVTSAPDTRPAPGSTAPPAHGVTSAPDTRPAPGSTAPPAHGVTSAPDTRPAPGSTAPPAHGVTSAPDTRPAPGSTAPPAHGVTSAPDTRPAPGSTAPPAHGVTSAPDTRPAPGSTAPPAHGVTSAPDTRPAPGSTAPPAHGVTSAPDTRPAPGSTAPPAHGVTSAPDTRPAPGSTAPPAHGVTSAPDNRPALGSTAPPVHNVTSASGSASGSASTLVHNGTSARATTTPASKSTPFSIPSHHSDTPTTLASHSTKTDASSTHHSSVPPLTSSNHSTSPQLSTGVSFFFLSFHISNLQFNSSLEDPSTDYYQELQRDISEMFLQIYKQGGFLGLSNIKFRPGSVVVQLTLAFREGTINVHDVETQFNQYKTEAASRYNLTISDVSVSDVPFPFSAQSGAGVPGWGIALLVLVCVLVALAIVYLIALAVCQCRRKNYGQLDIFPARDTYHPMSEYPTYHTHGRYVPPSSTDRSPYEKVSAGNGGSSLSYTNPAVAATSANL

Row | IgG concentration at which binding plateaus [1] [nM] | Substance | other results
1 | > 100 | hCTM01 S171C mutant IgG reduced with 5 mM 2-ME and labelled with AlexaFluor488-C5-maleimide (approximately 4 dyes per IgG; 3.9 dyes per IgG in FIG. 4) (antibody) | 
2 |  | wild type CTM01 IgG labelled via lysine modification with AlexaFluor488-NHS ester (2 dyes per IgG) (antibody) | percent lower binding than kappa cys171-dye labelled S171C mutant IgG [2]: 8%
3 |  | wild type CTM01 IgG labelled with AlexaFluor 488-C5-maleimide under identical conditions (0.7 dyes per IgG) (antibody) | fold lower degree of binding than the S171C mutant labelled via kappa cys171 [3]: 6 fold
4 | 20 | wild type hCTM01 IgG reduced with 20 mM 2-ME and labelled with AlexaFluor488-C5-maleimide (approximately 4 dyes per IgG; 3.6 dyes per IgG in FIG. 4) (antibody) | 
